In paper PMC5058683, “Structural basis for small molecule targeting of the programmed death ligand 1 (PD-L1)” (Oncotarget, 2016):

Molecular target: human PD-1 (33-150, Cys93 exchanged to serine) (human, UniProt Q15116 33-150, Cys93 exchanged to serine)
Experiment: NMR titration; AIDA assay: 15N-labelled PD-1 (0.2 mM) slightly overtitrated with unlabelled PD-L1; 1H-15N HMQC linewidths; 300 K; complex mass estimated from relaxation time analysis
Settings: both partners purified

Chain of human PD-1 (33-150, Cys93 exchanged to serine) (Q15116 other isoform, or with tags, fused parts or gaps Cys93 exchanged to serine | Cys93 exchanged to serine): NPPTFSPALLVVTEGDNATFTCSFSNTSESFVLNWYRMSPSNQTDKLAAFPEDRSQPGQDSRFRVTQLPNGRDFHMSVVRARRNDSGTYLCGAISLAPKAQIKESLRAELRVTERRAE

B1: human PD-L1 (amino acids 18-134) (domain or fragment)
chain: AFTVTVPKDLYVVEYGSNMTIECKFPVEKQLDLAALIVYWEMEDKNIIQFVHGEEDLKVQHSSYRQRARLLKDQLSLGNAALQITDVKLQDAGVYRCMISYGGADYKRITVKVNAPY
notes: human PD-L1 (programmed death ligand 1), amino acids 18-134, the distal extracellular IgG like domain; Cloned into pET-21b; The vector may add a C-terminal His tag with a short linker (surmised), and the deposited entries 5J89 and 5J8O would show it; Made in bacteria, so not glycosylated; Uniformly 15N-labelled in some NMR experiments; also called hPD-L1; programmed death ligand 1
- stoichiometry N: 1
